Reference: paper PMC3668522 (FEBS Open Bio, 2013)

Biological target: the molecule itself
Assay: cross-linking; SDS-PAGE of the purified CTD polypeptide: 16-kDa dimer band beside the 8-kDa monomer band; dimer formation stimulated by the oxidizing agent Cu(II)-(1,10-phenanthroline)3 and cleaved by dithiothreitol (disulfide bond)

B1: C-terminal domain (CTD) polypeptide of Arabidopsis thaliana metal tolerant protein 1 (AtMTP1) (domain or fragment, UniProt Q9ZT63 320-398, looked up)
chain: MESTPREIDATKLEKGLLEMEEVVAVHELHIWAITVGKVLLACHVNIRPEADADMVLNKVIDYIRREYNISHVTIQIER
stoichiometry N: 2
